The values that follow come from patent publication EP4242303A1 (Novozymes A/S, dated 2023).

Common to all, as to test: cell-based or functional assay
The target in assay [1] is T1, deamidase polypeptide from Chryseobacterium sp-62563 (deamidase domain of the pro-form SEQ ID NO: 5) (Chryseobacterium sp-62563).
T1 chain: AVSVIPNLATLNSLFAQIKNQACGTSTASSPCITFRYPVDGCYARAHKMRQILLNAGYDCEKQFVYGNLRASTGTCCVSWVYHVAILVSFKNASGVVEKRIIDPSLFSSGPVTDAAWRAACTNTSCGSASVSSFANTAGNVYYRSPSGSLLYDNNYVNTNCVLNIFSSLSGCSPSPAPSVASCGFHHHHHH

Assay [2] deals with T1, deamidase polypeptide from ….
Assay [3] has the same target.
Assay [4] has the same target.
The target of assay [5] is T2, deamidase polypeptide from Chryseobacterium culicis (deamidase domain of the fusion polypeptide SEQ ID NO: 15) (Chryseobacterium culicis).
T2 chain: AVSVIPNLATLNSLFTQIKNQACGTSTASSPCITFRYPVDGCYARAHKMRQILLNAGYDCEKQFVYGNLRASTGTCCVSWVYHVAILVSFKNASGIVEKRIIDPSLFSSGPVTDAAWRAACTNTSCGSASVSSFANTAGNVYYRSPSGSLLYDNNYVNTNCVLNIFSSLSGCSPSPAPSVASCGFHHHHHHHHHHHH

Assay [6] addresses T3, deamidase polypeptide from Chryseobacterium defluvii (deamidase domain of the fusion polypeptide SEQ ID NO: … (Chryseobacterium defluvii)).
T3 chain: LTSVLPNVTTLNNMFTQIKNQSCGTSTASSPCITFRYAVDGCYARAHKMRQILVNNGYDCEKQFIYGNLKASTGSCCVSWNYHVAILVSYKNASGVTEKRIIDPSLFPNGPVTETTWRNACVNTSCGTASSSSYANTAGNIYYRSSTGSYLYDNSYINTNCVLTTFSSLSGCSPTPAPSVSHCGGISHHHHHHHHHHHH

For assay [7], the target named is T4, deamidase polypeptide from Chryseobacterium gambrini (deamidase domain of the fusion polypeptide SEQ ID NO: … (Chryseobacterium gambrini)).
T4 chain: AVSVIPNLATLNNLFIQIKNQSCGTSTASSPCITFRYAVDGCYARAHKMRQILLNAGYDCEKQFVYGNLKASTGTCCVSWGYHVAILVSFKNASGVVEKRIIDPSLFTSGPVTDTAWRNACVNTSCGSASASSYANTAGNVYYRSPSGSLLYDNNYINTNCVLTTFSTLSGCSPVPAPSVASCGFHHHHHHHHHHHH

Substitutions are numbered along the chain they refer to. In names and notes the source's numbering stands. Like-named read-outs stand apart in the source and are kept apart here. Bounds are passed on as bounds.

B1: propeptide from Chryseobacterium sp-62563 (wildtype propeptide domain of the protein glutamine deamidase pro-form SEQ ID NO: 5) (other)
chain: NQDPNLVAKESNETAMKDFGKTVPVGIEKEDGKFKISFMVTAQPYEIKDSKENAAYISMIKTAVENETPIHVFLKANTNEIAKVDKATDDDIRYFKSVFTKEVKEENRK
Regarding B1, the “NanoDSF thermal unfolding temperature” value in assay [1] was determined as 85.3 °C.

B2: variant deamidase propeptide Y45G of Chryseobacterium sp-62563 (SEQ ID NO: 2) (other)
chain: B1 chain with Y45G
B2: the “NanoDSF thermal unfolding temperature” value in assay [2] worked out at 65.2 °C. For the same molecule, the Leakage activity in assay [3] turned out to be 2%. Besides, in assay [4], the “Relative activity of "activated" sample (% initial rate)” value (“Relative activity … (% initial rate)” below) was ≥ 100%.

B3: variant deamidase propeptide Y94P of Chryseobacterium sp-62563 (SEQ ID NO: 2) (other)
chain: B1 chain with Y94P
With B3, in assay [2], the “NanoDSF thermal unfolding temperature” value stood at 75.2 °C. In addition, in assay [3], the Leakage activity worked out at 23%. The “Relative activity … (% initial rate)” value in assay [4] is ≥ 100%.

B4: variant deamidase propeptide F99K of Chryseobacterium sp-62563 (SEQ ID NO: 2) (other)
chain: B1 chain with F99K
Take B4: in assay [2], the “NanoDSF thermal unfolding temperature” value stood at 75.4 °C. The same molecule had a Leakage activity in assay [3] of 32%. In addition, the “Relative activity … (% initial rate)” value in assay [4] was ≥ 100%.

B5: variant deamidase propeptide F99A of Chryseobacterium sp-62563 (SEQ ID NO: 2) (other)
chain: B1 chain with F99A
For the molecule B5, the “NanoDSF thermal unfolding temperature” value in assay [2] turned out to be 76.4 °C. This molecule also showed a Leakage activity in assay [3] of 20%. Moreover, in assay [4], the “Relative activity … (% initial rate)” value was ≥ 100%.

B6: variant deamidase propeptide F38C of Chryseobacterium sp-62563 (SEQ ID NO: 2) (other)
chain: B1 chain with F38C
For the molecule B6, the “NanoDSF thermal unfolding temperature” value in assay [2] came to 76.2 °C. This molecule also gave a Leakage activity in assay [3] of 26%. The “Relative activity … (% initial rate)” value in assay [4] was ≥ 100%.

B7: variant deamidase propeptide F99G of Chryseobacterium sp-62563 (SEQ ID NO: 2) (other)
chain: B1 chain with F99G
Consider B7, for which the “NanoDSF thermal unfolding temperature” value in assay [2] worked out at 74.1 °C. The Leakage activity in assay [3] was 20%. Moreover, the “Relative activity … (% initial rate)” value in assay [4] is ≥ 100%.

B8: variant deamidase propeptide Y45T of Chryseobacterium sp-62563 (SEQ ID NO: 2) (other)
chain: B1 chain with Y45T
Turning to B8, the “NanoDSF thermal unfolding temperature” value in assay [2] was found to be 73.7 °C. In assay [3], this molecule showed a Leakage activity of 2%. Besides, in assay [4], the “Relative activity … (% initial rate)” value is ≥ 100%.

B9: variant deamidase propeptide V23S of Chryseobacterium sp-62563 (SEQ ID NO: 2) (other)
chain: B1 chain with V23S
For B9, the “NanoDSF thermal unfolding temperature” value in assay [2] amounted to 69.8 °C. Moreover, the Leakage activity in assay [3] came to 10%. Further, the “Relative activity … (% initial rate)” value in assay [4] is ≥ 100%.

B10: propeptide from Chryseobacterium culicis (propeptide domain of the fusion polypeptide SEQ ID NO: 15) (other)
chain: NQDPNLVAKESNEIAMKDFGKTVPVGIEKEEGKFKVSFMVSAQPYHIKDSKENAGYISMIRQAVENETPVHIFLKTNTNEIAKVDKPTDDDIRYFKSVFTKEVKEENRK
In the case of B10, the “NanoDSF thermal unfolding temperature” value in assay [5] worked out at 85.2 °C.

B11: propeptide from Chryseobacterium defluvii (propeptide domain of the fusion polypeptide SEQ ID NO: 20) (other)
chain: ATNQDVVGKENTSNHVAARDFGKTVPVGINEENGTLKVSFILSAQFYEIKPSKENEEYISLIRQAIQNESPIHVFMKLNSNEIVKVEKGTEEDVKYFRSILTKEVKEENRK
With B11, the “NanoDSF thermal unfolding temperature” value in assay [6] came out at 89 °C.

B12: propeptide from Chryseobacterium gambrini (propeptide domain of the fusion polypeptide SEQ ID NO: 10) (other)
chain: NQDPNLVVKENNENAMRDFGSTIPVGIQKEGNVLKVSFIISAQFYEIKDSKENEAFISMIKSAIENETPVHVFLKKNSNEIAKVEKATDEDVTYFKSIFTKEVKEENRK
On to B12, for which, in assay [7], the “NanoDSF thermal unfolding temperature” value was determined as 89.3 °C.
